Results reported in patent US20140294821.

How the values were obtained:
[1] = tested on: rBDD FVIII (recombinant B-domain deleted FVIII lacking Fc moieties)
[2] = tested on: rFVIIIFc (recombinant B-domain deleted human FVIII-Fc monomer hybrid), drug substance
[3] = tested on: single chain rFVIIIFc (purified non-processed isoform of rFVIIIFc)

## activated Factor IX
[1]
  FXa generation rate (nM/min) against FIXa concentration (Xase complex on phospholipid vesicles): BDD FVIII (triangles, solid Kd fits, two runs): rate rises from about 0.2 nM/min at about 0.25 nM FIXa to about 2.5 to 2.7 nM/min at about 5.6 nM, points at 8 nM about 2.0 to 2.1; the fits still rise at 8 nM (about 2.5 to 2.6), no upper plateau in the range shown
  Km (nM) (called Kd in the text) of FXa generation rate as a function of FIXa concentration (thrombin-activated FVIII, 25% PS-75% PC vesicles): 2.5 nM
  Vmax (nM/min) of FXa generation rate as a function of FIXa concentration: 4 nM/min
[2]
  FXa generation rate (nM/min) against FIXa concentration (Xase complex on phospholipid vesicles): FVIIIFc (circles, dashed Kd fits, two runs): rate rises from about 0.2 nM/min at about 0.25 nM FIXa to about 2.8 to 3.2 nM/min at 4 to 8 nM; the fits still rise at 8 nM (about 3.3), no upper plateau in the range shown

## activated protein C
[1]
  FXa generation rate after thrombin activation and incubation with APC: Treatment with APC for 90 min led to a significant decrease in FXa generation rates, similar to non-activated samples, and these results were similar for rFVIIIFc DS, rBDD FVIII, and single chain rFVIIIFc
[2]
  FXa generation rate after thrombin activation and incubation with APC: Treatment with APC for 90 min led to a significant decrease in FXa generation rates, similar to non-activated samples, and these results were similar for rFVIIIFc DS, rBDD FVIII, and single chain rFVIIIFc
[3]
  FXa generation rate after thrombin activation and incubation with APC: Treatment with APC for 90 min led to a significant decrease in FXa generation rates, similar to non-activated samples, and these results were similar for rFVIIIFc DS, rBDD FVIII, and single chain rFVIIIFc

## human α-thrombin
[1]
  loss of SPR response of vWF-bound rBDD FVIII after α-thrombin (double reference-subtracted release phase): response falls faster and deeper with rising α-thrombin (0.005 to 20 U/mL): at 20 U/mL to about -415 RU at 120 s at 25 °C and to about -425 RU at 37°C; the lowest concentrations stay within about -60 RU of 0
  release rate (RU/s) of rBDD FVIII from immobilized vWF against time, by α-thrombin concentration: peak release rate grows and comes earlier with rising α-thrombin: uppermost trace (20 U/mL) peaks at about 105 RU/s near 2 s at 25 °C and at about 157 RU/s near 2 s at 37 °C
[2]
  release rate (RU/s) of rFVIIIFc from immobilized vWF against time, by α-thrombin concentration: peak release rate grows and comes earlier with rising α-thrombin: uppermost trace (20 U/mL) peaks at about 145 RU/s near 3 s at 25 °C and at about 205 RU/s near 2 s at 37 °C
[3]
  release rate (RU/s) of SC rFVIIIFc from immobilized vWF against time, by α-thrombin concentration: peak release rate grows with rising α-thrombin: uppermost trace (20 U/mL) peaks at about 112 RU/s near 3 s at 37°C; the 25 °C panel as drawn peaks at about 145 RU/s near 3 s and looks the same as the rFVIIIFc 25 °C panel, which does not agree with Figure 16E (about 82 RU/s at 20 U/mL)
